Laboratory results from US12570957B2, “Isolated naive pluripotent stem cells and methods of generating same” (Yeda Research and Development Co. Ltd., priority 2013, dated 2026).

Experiments:
Assay type in all cases: cell-based
primed hESCs/hiPSCs = assay: Pluripotency maintenance after supplementation of inhibitors or growth factors; details: primed human cells
Procedure: (§1) Shown are histograms depicting colony formation of pluripotent cell lines in various media. Cell populations were equally divided and plated on gelatin/vitronectin coated plates in the indicated growth medium in which these cell lines are normally maintained (mouse naive cells in a medium containing 2i/LIF, naive hESCs/iPSCs in a WIS-NHSM medium, mouse EpiSCs and human primed ESCS/iPSCs in a KSR/bFGF/TGFβmedium). 36 hours later the wells were supplemented with the indicated inhibitors or growth factors. After 14 days (2 passages), wells were analyzed for Oct4-GFP pluripotency marker expression by FACS, to determine the relative percentage of pluripotent colonies. Pluripotent cell frequency was normalized to an internal control, as indicated by “Growth medium” only on the far left column (For naive cells growth medium was WIS-NHSM, and for primed cells was conventional KSR/bFGF/TGFβcontaining medium as specified in methods). […]
(§2) FIGS. 108A-108C—Signaling and functional characteristics of human naive pluripotency. […] After 14 days (2 passages), wells were analyzed by OCT4 immunostaining of direct detection of OCT4-GFP pluripotency reporter expression, to determine the relative percentage of undifferentiated pluripotent cells. […] After 20 days, colonies positive for OCT4 pluripotency markers were counted and normalized to colonies from cells electroporated with empty vector. […]

naive hESCs/hiPSCs = assay: as above; details: naive human cells in WIS-NHSM
Procedure: as §1, §2

WIS1 naive human ESCs = assay: PGCLC induction from naive ESCs, NANOS3-mCherry FACS; details: 2 days N2-KSR medium then 4 days PGC medium
Excerpt: FIGS. 96A-96I depict the process of differentiating human ESCs into primordial germ cell like cells. FIG. 96A—schematic illustration of the differentiation process. FIGS. 96B-96I—FACS analyses for detecting PGCLC marker expression NANOS3-Cherry. […] Shown are FACS results after 2 (FIGS. 96D and 96G), 4 (FIGS. 96E and 96H), and 6 (FIGS. 96F and 961) days in the PGC medium. The Figures show specific induction of mCherry reporter at Day 2+4 and only when BMP4 is included in the differentiation medium (FIG. 96E). […] One representative experiment is shown out of five performed. +/− indicates s.d. (n=5).
N2-KSR medium—250 ml Neurobasal medium (Invitrogen—#21103-049), 250 ml DMEM-F12, N2 supplement (Invitrogen, #17502-048), 1% KSR (knockout serum replacement, Invitrogen, #10828028) medium] with 8 ng/ml bFGF (Peprotech), 1 ng/ml TGF-β1 (Peprotech) and ROCKi (10 μM).
PGC medium is comprised of GMEM (Invitrogen, #21710082), 15% KSR, 1% NNEA (Biological industries, 01-340-1B), Penicillin-Streptomycin, 1 mM L-Glutamine, […] (Y-27632, Axon Medchem) and the following cytokines: 500 ng/ml BMP4 (bone morphogenetic protein 4; R&D Systems Inc.), 20 ng/ml LIF (leukemia inhibitory factor; PeproTech), 100 ng/ml SCF (Stem Cell Factor; PeproTech), 50 ng/ml EGF (Epidermal Growth Factor; Peprotech). […]

B1: BMP4: bone morphogenetic protein 4, recombinant human (protein, UniProt P12644 293-408, looked up)
Bone morphogenetic protein 4: SPKHHSQRARKKNKNCRRHSLYVDFSDVGWNDWIVAPPGYQAFYCHGDCPFPLADHLNSTNHAIVQTLVNSVNSSIPKACCVPTELSAISMLYLDEYDKVVLKNYQEMVVEGCGCR
With B1 the “response of pluripotent state” value (primed hESCs/hiPSCs) was “differentiated”, the “response of pluripotent state” value (naive hESCs/hiPSCs) was “do not differentiate” and the “cells expressing NANOS3-mCherry reporter” value (WIS1 naive human ESCs) was 17.7%.
